For data set [1], the system named is O=C[C@H](O)[C@H](O)COP(=O)(O)O. The experiment in a line: DHS enzymatic activity assay with recombinant AthDHS3. Particulars: other: various concentrations of the substrate; means ± SEM, n = 3; pH 7.4. It is filed as biochemical, Arabidopsis thaliana. As to the method:
Unless otherwise noted, DHS enzymatic activity was monitored as previously described ([Liu et al., 2008]), with several optimizations for high-throughput assays with eight-strip PCR tubes and a thermal cycler. The enzyme solution (7.7 µL) containing 50 mM HEPES (pH 7.4) was preincubated with an effector molecule(s) at room temperature for 10 min. For assays using recombinant protein and enzyme fraction isolated from plant leaves, 0.01–0.05 µg and approximately 50 µg of proteins were used, respectively. After adding 0.5 µL of 0.1 M DTT, the samples were further incubated at room temperature for 15 min. […] The enzyme reaction was started by adding 6.8 µL of the substrate solution, then incubated at 37°C for 20 min, and terminated by adding 30 µL of 0.6 M trichloroacetic acid. After brief centrifugation, 5 µL of 200 mM NaIO4 (sodium meta-periodate) in 9 N H3PO4 was added to oxidize the enzymatic product and incubate at 25°C for 20 min. To stop the oxidation reaction, 20 µL of 0.75 M NaAsO2 (sodium arsenite), which was dissolved in 0.5 M Na2SO4 and 0.05 M H2SO4, was immediately mixed. After 5 min of incubation at room temperature, one-third of the sample solution was transferred to a new tube to be mixed with 50 µL of 40 mM thiobarbituric acid and incubated at 99°C for 15 min in a thermal cycler. Developed pink chromophore was extracted by putting the final solutions with 600 µL of cyclohexanone in eight-strip solvent-resistant plastic tubes, mixing vigorously and centrifuging them at 4,500 × g for 3 min to separate water- and cyclohexanone-based layers. The absorbance of the pink supernatant was read at 549 nm with the microplate reader (Infinite 200 PRO, TECAN, Männedorf, Switzerland) to calculate DAHP production with the molar extinction coefficient at 549 nm (ε = 549 nm) of 4.5 × 10^4/M/cm. […]
For determination of kinetic parameters, the data of enzymatic activities measured in the presence of various concentration of substrates were calculated with the Michaelis–Menten equation in Graphpad Prism 6 (GraphPad Software, San Diego, CA, USA).

Data set [2] deals with C=C(OP(=O)(O)O)C(=O)O. The experiment in a line: purified protein, by the assay type. Particulars: other: various concentrations of the substrate; means ± SEM, n = 3; pH 7.4.

Chain of AthDHS3 (Arabidopsis thaliana) (chain, as listed by the source): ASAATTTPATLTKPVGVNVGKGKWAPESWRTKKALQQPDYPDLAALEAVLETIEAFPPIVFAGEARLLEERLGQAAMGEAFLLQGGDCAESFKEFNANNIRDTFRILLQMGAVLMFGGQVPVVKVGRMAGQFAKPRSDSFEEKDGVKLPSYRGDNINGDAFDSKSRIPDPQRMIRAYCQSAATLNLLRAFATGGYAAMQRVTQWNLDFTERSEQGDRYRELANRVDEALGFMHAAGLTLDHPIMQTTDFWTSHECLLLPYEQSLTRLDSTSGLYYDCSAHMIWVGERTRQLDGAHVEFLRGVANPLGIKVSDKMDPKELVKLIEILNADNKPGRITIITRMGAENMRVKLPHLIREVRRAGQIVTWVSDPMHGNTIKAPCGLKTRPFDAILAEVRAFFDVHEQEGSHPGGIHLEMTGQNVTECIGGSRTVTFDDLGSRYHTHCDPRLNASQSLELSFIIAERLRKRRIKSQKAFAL

What is called Km is the substrate concentration at which the rate is half of its maximum. Usually kcat stands for the number of substrate molecules converted per active site and unit of time at saturation. One may read the kcat/Km as the second-order rate constant that governs catalysis at low substrate concentration. Regarding AthDHS3 (Arabidopsis thaliana), in data set [1], the Km came out at 1550 ± 276 µM, the catalytic constant (kcat) worked out at 9.13 ± 0.28 s⁻¹ and the kcat/Km was 6350 ± 160 M⁻¹ s⁻¹. In data set [2], the Michaelis constant (Km) stood at 706 ± 124 µM, the kcat is 8.42 s⁻¹ and the kcat/Km turned out to be 12400 M⁻¹ s⁻¹.
